Laboratory results: patent US20230227545A1 (published 2023)

What was measured:
[1] = biological target: T1, pig IL-1β (pig, UniProt P26889 115-267); test: SPR, Biacore 8K, mAb captured on anti-human Fc chip, soluble IL-1β as analyte
T1 construct: also called pig IL-β
T1 sequence (looked up): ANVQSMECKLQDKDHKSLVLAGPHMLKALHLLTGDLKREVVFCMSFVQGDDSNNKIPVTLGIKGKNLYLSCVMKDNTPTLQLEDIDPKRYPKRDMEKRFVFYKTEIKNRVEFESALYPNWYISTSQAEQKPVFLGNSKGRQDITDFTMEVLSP
Description: (§1) Affinity assessment of 05H21A, 15N14A, and 08F17A against human IL-1β was performed by Surface Plasmon Resonance (SPR) using a Biacore 8k. Cross-reactivity of the same antibody panel was also assessed against cyno, mouse, rat and pig IL-1β.
(§2) SPR is a label-free technique to study the strength of an interaction between two binding partners by measuring the change in mass upon complex formation and dissociation. Briefly, antibodies were immobilized on a sensor chip which was coupled with goat anti-human Fc (GAH-Fc C1 sensor chip). Soluble IL-1β was flowed over the immobilized antibody and association/dissociation responses were monitored. Kinetic information (on-rate and off-rate constants) were extracted by fitting sensorgrams to the 1:1 Langmuir model. Binding affinity (KD) were reported as the ratio of rate constants (koff/kₒₙ).

[2] = biological target: T2, human IL-1β (human, UniProt P01584 117-269); test: cell-based or functional assay
[3] = biological target: T2, human IL-1β; test: cell-based or functional assay; remark: listed apart in the source
[4] = biological target: T3, cynomolgus IL-1β (cynomolgus macaque, UniProt P79182 117-268); test: cell-based or functional assay
T3 sequence (looked up): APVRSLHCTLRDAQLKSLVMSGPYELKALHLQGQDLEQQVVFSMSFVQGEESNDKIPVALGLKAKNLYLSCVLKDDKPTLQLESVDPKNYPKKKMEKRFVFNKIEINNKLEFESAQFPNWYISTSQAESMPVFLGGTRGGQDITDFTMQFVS

[5] = biological target: T2, human IL-1β; test: cell-based or functional assay; remark: listed apart in the source
[6] = biological target: T3, cynomolgus IL-1β; test: SPR, Biacore 8K, mAb captured on goat anti-human Fc C1 chip, soluble IL-1β as analyte, 1:1 Langmuir fit
Description: as §1, §2

[7] = biological target: T2, human IL-1β; test: as above
Description: as §1, §2

binding result [1]: no binding
IC30, inhibition of rhIL-1β-induced CXCL5 release, human whole blood (5 donors) [2]: 0.4 nM
IC30, inhibition of rhIL-1β-induced G-CSF release, human whole blood (5 donors) [2]: 0.364 nM
IC30, inhibition of rhIL-1β-induced IL-6 release, human whole blood (5 donors) [2]: 0.393 nM
IC50, inhibition of rhIL-1β-induced CXCL5 release, human whole blood (5 donors) [2]: 0.622 nM
IC50, inhibition of rhIL-1β-induced G-CSF release, human whole blood (5 donors) [2]: 0.632 nM
IC50, inhibition of rhIL-1β-induced IL-6 release, human whole blood (5 donors) [2]: 0.631 nM
IC90, inhibition of rhIL-1β-induced CXCL5 release, human whole blood (5 donors) [2]: 1.95 nM
IC90, inhibition of rhIL-1β-induced G-CSF release, human whole blood (5 donors) [2]: 2.64 nM
IC90, inhibition of rhIL-1β-induced IL-6 release, human whole blood (5 donors) [2]: 2.16 nM
IC30, inhibition of rhIL-1β-induced cytokine release, NHDF donor 29114 [3]: 0.039 nM
IC30, inhibition of rhIL-1β-induced cytokine release, NHLF donor 34325 [3]: 0.071 nM
IC30, inhibition of rhIL-1β-induced cytokine release, NHLF donor 35234 [3]: 0.042 nM
IC50, inhibition of rhIL-1β-induced cytokine release, NHDF donor 29114 [3]: 0.078 nM
IC50, inhibition of rhIL-1β-induced cytokine release, NHLF donor 34325 [3]: 0.167 nM
IC50, inhibition of rhIL-1β-induced cytokine release, NHLF donor 35234 [3]: 0.098 nM
IC90, inhibition of rhIL-1β-induced cytokine release, NHDF donor 29114 [3]: 0.49 nM
IC90, inhibition of rhIL-1β-induced cytokine release, NHLF donor 34325 [3]: 1.51 nM
IC90, inhibition of rhIL-1β-induced cytokine release, NHLF donor 35234 [3]: 0.89 nM
IC30, inhibition of G-CSF release, cynomolgus lung fibroblasts (CLF), 15 pM rcynoIL-1β [4]: 0.195 nM
IC30, inhibition of IL-6 release, cynomolgus dermal fibroblasts (CDF), 5 pM rcynoIL-1β [4]: 0.089 nM
IC30, inhibition of IL-6 release, cynomolgus lung fibroblasts (CLF), 15 pM rcynoIL-1β [4]: 0.214 nM
IC50, inhibition of G-CSF release, cynomolgus dermal fibroblasts (CDF), 5 pM rcynoIL-1β [4]: 0.059 nM
IC50, inhibition of G-CSF release, cynomolgus lung fibroblasts (CLF), 15 pM rcynoIL-1β [4]: 0.27 nM
IC50, inhibition of IL-6 release, cynomolgus dermal fibroblasts (CDF), 5 pM rcynoIL-1β [4]: 0.175 nM
IC50, inhibition of IL-6 release, cynomolgus lung fibroblasts (CLF), 15 pM rcynoIL-1β [4]: 0.306 nM
IC90, inhibition of G-CSF release, cynomolgus lung fibroblasts (CLF), 15 pM rcynoIL-1β [4]: 0.63 nM
IC90, inhibition of IL-6 release, cynomolgus dermal fibroblasts (CDF), 5 pM rcynoIL-1β [4]: 0.997 nM
IC90, inhibition of IL-6 release, cynomolgus lung fibroblasts (CLF), 15 pM rcynoIL-1β [4]: 0.779 nM
IC30, inhibition of IL-6 release, human PBMCs (n=5 donors), 10 pM rhIL-1β [5]: 0.043 nM
IC30, inhibition of IL-6 release, human PBMCs (n=5 donors), 30 pM rhIL-1β [5]: 0.104 nM
IC50, inhibition of IL-6 release, human PBMCs (n=5 donors), 10 pM rhIL-1β [5]: 0.07 nM
IC50, inhibition of IL-6 release, human PBMCs (n=5 donors), 30 pM rhIL-1β [5]: 0.164 nM
IC90, inhibition of IL-6 release, human PBMCs (n=5 donors), 10 pM rhIL-1β [5]: 0.244 nM
IC90, inhibition of IL-6 release, human PBMCs (n=5 donors), 30 pM rhIL-1β [5]: 0.533 nM
Kd [6]: 0.022 nM
koff [6]: 0.000348 s⁻¹
kon [6]: 1.58e+07 M⁻¹ s⁻¹
Kd [7]: 0.0197 nM
koff [7]: 0.000422 s⁻¹
kon [7]: 2.14e+07 M⁻¹ s⁻¹
B1: 05H21A (antibody, human IgG1, lambda, V domains shown)
VH: QVTLRESGPALVKPTQTLTLTCTFSGFSLSTSGMWVSWIRQPPGKALEWLALIDWGDDKYYTTSLKTRLTISKDTSKNQVVLTMTNMDPVDTATYYCARMREGSRAFDIWGQGTVVTVSS
VL: QSVLTQPPSVSEAPRQRVTISCSGSSSNIGDNAVNWYQQLPGKAPKLLIYNDDLLSSGVSDRFSGSKSGTSASLAISGLQSEDEADYYCAAWDDSLNGPVFGGGTKLTVLG
notes: Lambda light chain; also called 05H21A (anti-IL-1β) mAb [IgG1: YTE]
